Reference: patent US20260167959A1, “APTAZYME-BASED REGULATABLE GENE EXPRESSION SYSTEMS” (REJUVENATE BIO INC, priority 2022, published 2026)

B1: RA337 (nucleic acid)
DNA: GCGCGTAGAATACCAGCATCGTCTTGATGCCCTTGGAAGTCTCCTGGATTCGCGGAAACGCGTACATCCAGCTGACGAGTCCCAAATAGGACGAAACGCGC
modifications: expressed or natural sequence
B2: RA336 (nucleic acid)
DNA: GCGCGTCCTGGATTCGCGGAAAGTGATACCAGCATCGTCTTGATGCCCTTGGCAGCACTACGCGTACATCCAGCTGACGAGTCCCAAATAGGACGAAACGCGC
modifications: expressed or natural sequence
B3: RA333 (nucleic acid)
DNA: GCGCGTCCTGGATTCGCGGAAACGCGTACATCCAGCTGACGAGTCCCAAAGAATACCAGCATCGTCTTGATGCCCTTGGAAGTCTATAGGACGAAACGCGC
modifications: expressed or natural sequence
B4: RA325 (nucleic acid)
DNA: GCGCGTCCTGGATTCGCGGAAACGCGTACATCCAGCTGACGAGTCCCAAATAGGAGGAATACCAGCATCGTCTTGATGCCCTTGGAAGTCCCAAAACGCGC
modifications: expressed or natural sequence
B5: RA327 (nucleic acid)
DNA: GCGCGTCCTGGATTCGCGGAAACGCGTAGTGATACCAGCATCGTCTTGATGCCCTTGGCAGCACTACATCCAGCTGACGAGTCCCAAATAGGACGAAACGCGC
modifications: expressed or natural sequence
B6: RA341 (nucleic acid)
DNA: GCGGAATACCAGCATCGTCTTGATGCCCTTGGAAGTCCGCGTCCTGGATTCGCGGAAACGCGTACATCCAGCTGACGAGTCCCAAATAGGACGAAACGCGC
modifications: expressed or natural sequence
B7: RA346 (nucleic acid)
DNA: GCGCGTCCTGGATTCGCGGAAACGCGTACATCCAGCTGGAATACCAGCATCGTCTTGATGCCCTTGGAAGTCCGACGAGTCCCAAATAGGACGAAACGCGC
modifications: expressed or natural sequence
B8: RA330 (nucleic acid)
DNA: GCGCGTCCTGGGAGAATACCAGCATCGTCTTGATGCCCTTGGAAGTCTCATTCGCGGAAACGCGTACATCCAGCTGACGAGTCCCAAATAGGACGAAACGCGC
modifications: expressed or natural sequence
B9: RA349 (nucleic acid)
DNA: GCGCGTCCTGGATTCGCGGAAACGCGTACATCCAGCTGACGAGGAGAATACCAGCATCGTCTTGATGCCCTTGGAAGTCTCTCCCAAATAGGACGAAACGCGC
modifications: expressed or natural sequence
B10: RA345 (nucleic acid)
DNA: GCGCGTCCTGGATTCGCGGAAACGCGTACATCCAGCTGACGAGTCCCAAATAGGACGAAACGCGAGAATACCAGCATCGTCTTGATGCCCTTGGAAGTCTC
modifications: expressed or natural sequence
B11: RA344 (nucleic acid)
DNA: GCGCGTCCTGGATTCGCGGAAACCCGGAATACCAGCATCGTCTTGATGCCCTTGGAAGTCCGGGCGTACATCCAGCTGACGAGTCCCAAATAGGACGAAACGCGC
modifications: expressed or natural sequence
B12: RA328 (nucleic acid)
DNA: GCGCGTCCTGGATTCGCGGAAACGCGTACATCCAGCTGACAGTGATACCAGCATCGTCTTGATGCCCTTGGCAGCACTGAGTCCCAAATAGGACGAAACGCGC
modifications: expressed or natural sequence
B13: RA324 (nucleic acid)
DNA: GCGCGTCCTGGATTCGCGGAAACCGGAATACCAGCATCGTCTTGATGCCCTTGGAAGTCCGGCGTACATCCAGCTGACGAGTCCCAAATAGGACGAAACGCGC
modifications: expressed or natural sequence
B14: RA339 (nucleic acid)
DNA: GCGCGTCCTGGATTGGAATACCAGCATCGTCTTGATGCCCTTGGAAGTCCCGCGGAAACGCGTACATCCAGCTGACGAGTCCCAAATAGGACGAAACGCGC
modifications: expressed or natural sequence
B15: RA335 (nucleic acid)
DNA: GCGCGTCCTGGATTCGCGGAAACGCGTAGGAATACCAGCATCGTCTTGATGCCCTTGGAAGTCCCATCCAGCTGACGAGTCCCAAATAGGACGAAACGCGC
modifications: expressed or natural sequence
B16: RA340 (nucleic acid)
DNA: GCGCAGTGATACCAGCATCGTCTTGATGCCCTTGGCAGCACTGTCCTGGATTCGCGGAAACGCGTACATCCAGCTGACGAGTCCCAAATAGGACGAAACGCGC
modifications: expressed or natural sequence
B17: RA329 (nucleic acid)
DNA: GCGCGTCCTGGATTCGCGGAAACGCGTACATCCAGCTGACGAGTCCCAAATAGGACGAAACAGTGATACCAGCATCGTCTTGATGCCCTTGGCAGCACTGCGC
modifications: expressed or natural sequence
B18: RA348 (nucleic acid)
DNA: GCGCGTCCTGGATTCGCGGAAACGCGTACATCCAGCTGACGACGAGAATACCAGCATCGTCTTGATGCCCTTGGAAGTCTCGGTCCCAAATAGGACGAAACGCGC
modifications: expressed or natural sequence
B19: RA343 (nucleic acid)
DNA: GCGCGTCCGGAATACCAGCATCGTCTTGATGCCCTTGGAAGTCCGCTGGATTCGCGGAAACGCGTACATCCAGCTGACGAGTCCCAAATAGGACGAAACGCGC
modifications: expressed or natural sequence
B20: RA331 (nucleic acid)
DNA: GCGCGTCCTGGGAATACCAGCATCGTCTTGATGCCCTTGGAAGTCCGATTCGCGGAAACGCGTACATCCAGCTGACGAGTCCCAAATAGGACGAAACGCGC
modifications: expressed or natural sequence
B21: RA334 (nucleic acid)
DNA: GCGCGTCCTGGATTCGCGGAAACGCGTACCCGGAATACCAGCATCGTCTTGATGCCCTTGGAAGTCCGGATCCAGCTGACGAGTCCCAAATAGGACGAAACGCGC
modifications: expressed or natural sequence
B22: RA332 (nucleic acid)
DNA: GCGCGTCCTGGATTCGCGGAAACGCGTACATCCAGCTGACGAGTCGGAATACCAGCATCGTCTTGATGCCCTTGGAAGTCCCCAAATAGGACGAAACGCGC
modifications: expressed or natural sequence
B23: RA338 (nucleic acid)
DNA: GCGCGTCCTGGATTCGCGGAAACGAGAATACCAGCATCGTCTTGATGCCCTTGGAAGTCTCGCGCGTACATCCAGCTGACGAGTCCCAAATAGGACGAAACGCGC
modifications: expressed or natural sequence
B24: RA347 (nucleic acid)
DNA: GCGCGTCCTGGATTCGCGGAAACGCAGAATACCAGCATCGTCTTGATGCCCTTGGAAGTCTGTACATCCAGCTGACGAGTCCCAAATAGGACGAAACGCGC
modifications: expressed or natural sequence
B25: RA326 (nucleic acid)
DNA: GCTGTCACCGGAATACCAGCATCGTCTTGATGCCCTTGGAAGTCCGGTCTGATGAGTCCCTTGAGGACGAAACAGC
modifications: expressed or natural sequence
B26: RA342 (nucleic acid)
DNA: GCGCGTCCTGGATTCGCGGAAACGCGTACGGAATACCAGCATCGTCTTGATGCCCTTGGAAGTCCGCATCCAGCTGACGAGTCCCAAATAGGACGAAACGCGC
modifications: expressed or natural sequence
B27: RA323 (nucleic acid)
DNA: GCGCGTCCTGGATTCGCGCGGAATACCAGCATCGTCTTGATGCCCTTGGAAGTCCGGAAACGCGTACATCCAGCTGACGAGTCCCAAATAGGACGAAACGCGC
modifications: expressed or natural sequence
B28: RA032 (nucleic acid)
DNA: GCGCGTCCTGGATTCGCGGAAAAGTGATACCAGCATCGTCTTGATGCCCTTGGCAGCACTCGCGTACATCCAGCTGACGAGTCCCAAATAGGACGAAACGCGC
modifications: expressed or natural sequence
B29: RA033 (nucleic acid)
DNA: GCGCGTCCTGGATTCGCGGAAACGCGTACATCCAGCTGACGAGTCCCAAATCCGGAATACCAGCATCGTCTTGATGCCCTTGGAAGTCCGGAGGACGAAACGCGC
modifications: expressed or natural sequence

These molecules were tested on Renilla luciferase RNA (assay: Barcoded aptazyme variant library screen: un-cleaved Renilla luciferase RNA by barcode read counts, HEK293-T cells). Conditions: un-cleaved Renilla luciferase RNA by barcode read counts; with 1 mM theophylline (ON) over without theophylline (OFF); HEK293-T cells; triplicate.
Type: cell-based
How it was run: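 Aptazyme variants (seven theophylline aptamers inserted after each T3H48 ribozyme nucleotide, 9-nt barcoded) cloned into the 3′ UTR of Renilla luciferase in psiCHECK-2; cells cultured ± theophylline, in triplicate. RNA and DNA barcodes amplified and sequenced; normalized read counts gave un-cleaved RNA fraction and ON/OFF fold-change.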

Molecule | Fold change in RNA expression between the ON state and the OFF state
B1 | 0.9
B2 | 0.9
B3 | 0.9
B4 | 0.9
B5 | 0.9
B6 | 0.9
B7 | 0.9
B8 | 0.9
B9 | 0.9
B10 | 0.9
B11 | 0.9
B12 | 0.9
B13 | 0.9
B14 | 0.9
B15 | 0.9
B16 | 0.9
B17 | 0.9
B18 | 0.9
B19 | 0.9
B20 | 0.9
B21 | 0.9
B22 | 0.9
B23 | 0.9
B24 | 0.9
B25 | 0.9
B26 | 0.9
B27 | 0.9

Same assay, conditions: un-cleaved Renilla luciferase RNA, HEK293-T cells cultured with 1 mM theophylline (ON) over without theophylline (OFF); barcode read counts, triplicate

Molecule | Fold change in RNA expression between the ON state and the OFF state [fold]
B28 | 2.3
B29 | 2.3
